Data on 4 molecules can be found in patent US20190359687A1 (Bayer, published 2019).

For assay [1], the target named is T1, purified human glycophorin A protein (Sigma, cat # G5017) (human, UniProt P02724 20-150).
T1 construct: mature; also called Sigma hGPA; Sigma GPA
T1 sequence (looked up): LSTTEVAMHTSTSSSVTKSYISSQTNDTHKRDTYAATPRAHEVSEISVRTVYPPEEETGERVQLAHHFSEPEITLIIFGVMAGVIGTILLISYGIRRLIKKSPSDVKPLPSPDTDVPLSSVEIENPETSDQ
The assay can be described thus: ELISA, native hGPA.

In assay [2] the target is T2, human glycophorin A in the red blood cell membrane (human, UniProt P02724 20-150).
T2 construct: whole, on cells; used for intact RBC, isolated RBC membranes and transfected cells; the assay field tells which; also called GPA; hGPA
T2 sequence (looked up): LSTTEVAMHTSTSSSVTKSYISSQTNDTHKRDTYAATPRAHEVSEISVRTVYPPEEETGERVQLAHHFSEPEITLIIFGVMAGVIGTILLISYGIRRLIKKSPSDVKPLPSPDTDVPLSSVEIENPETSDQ
Put plainly: ELISA, human RBC membranes.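 Note: antibodies bound to isolated human red blood cell membrane ghosts coated on 96-well plates, tested 1.5 h at room temperature, bound antibody quantified with a detection antibody.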 On the technique in general: In an ELISA, binding on a coated surface is turned into a signal by an enzyme label.
Procedure: In order to evaluate binding of antibodies to GPA in the native context of the red blood cell membrane we made use of isolated red blood cell membranes, also called red blood cells ghosts. These membranes are prepared by first isolating red blood cells from citrated whole blood. Citrated whole blood is layered on to Ficol and centrifuged at low speed for 20 minutes to pellet the red blood cells. The supernatant containing plasma and other blood cells is discarded and the red blood cell pellet is subsequently washed 3 times in 10 cell volumes of phosphate buffered saline (PBS). A 10 ml pellet of purified red blood cells is resuspended in 30 ml of cold low osmorality 20 mM phosphate buffer (pH7.4) and incubated for 30 mins to break open the RBC. After Centrifugation at 10,000 rpm for 30 min at 5° C. the hemoglobin containing supernatant is discarded. To the membrane pellet another 30 ml of 20 mM phosphate buffer is added and the sample centrifuged again at 10,000 rpm for 30 min at 5° C. to pellet the membrane fraction. This wash and centrifugation step is repeated another 4 times. The red blood cell membranes are then resuspended in 20 mL of PBS to achieve an equivalent of approximately 2.5E9 cells/mL and stored frozen at −20° C. Binding of antibodies to RBC ghost can be measured by ELISA in which the RBC ghost suspension (5×10⁶ in 100 ul PBS) was added to each well of flat bottom 96-well ELISA microtiter plates (2HB, Immunolon) and the plates incubated overnight at 4° C. The plates were blocked with Starting blocking buffer (Thermo Fisher) for 2 hours at room temperature (RT). Antibodies or other test molecules were added to each well and incubated for 1.5 hours at RT. After 4 washes 100 ul of an appropriate detection antibody was added to each well and incubated for 1 hour at RT. After 4 washes the detection antibody was measured using appropriate detection reagents.

Assay [3] has as its target T2, human glycophorin A in the red blood …. The assay can be described thus: SPR single cycle kinetics, human RBC membranes on L1 sensor; single cycle kinetics, FIG. 6.
Procedure: Kinetic analysis of the antibody binding to human red blood cell membranes was also performed using surface plasmon resonance (SPR) using a Biacore instrument. In this assay membranes prepared from human red blood cells were attached to a L1 sensor matrix and antibodies were flowed over the RBC membranes.
The target of assay [4] is T3, recombinant human GPA ectodomain (human, UniProt P02724 20-91).
T3 construct: also called recombinant hGPA ECD; recGPA
T3 sequence: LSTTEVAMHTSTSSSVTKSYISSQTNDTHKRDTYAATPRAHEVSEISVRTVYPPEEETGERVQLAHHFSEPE
Put plainly: ELISA, rec hGPA ectodomain.

In assay [5] the target is T1, purified human glycophorin A protein …. The assay can be described thus: ELISA, hGPA.
Procedure: (§1) Hybridomas were generated from the spleen cells of these mice and these hybriomas were screened first by fluorescence activated cell sorting (FACS) against isolated human and monkey (Cynomolgus monkey and Rhesus monkey) red blood cells (RBC) and then by ELISA against purified human glycophorin A protein (GPA). Isolated RBC were prepared from whole blood from normal human, cynomolgus monkey, and beagle dog, were anticoagulant with sodium heparin (Bioreclamation). 2-3 mL of whole blood was loaded gently on the top of 3 mL Ficoll Plus (Sigma Aldrich) then centrifuged at 500 g for 20 min at room temperature (RT). The RBC pellets were washed 3 times with 10 mL of PBS, and centrifuge 400 g for 10 min at RT. RBC pellets were re-suspended in PBS at the same total volume as the original blood volume to achieve the same RBC cell density as in whole blood and stored at 4° C. Purified human glycophorin A protein was obtained from Sigma Aldrich and coated on ELISA plates at 2 ug/ml. Binding of antibodies to human GPA was detected using appropriate secondary antibodies using methods well known in the art.
Assay [6] has as its target T2, human glycophorin A in the red blood …. Put plainly: FACS, hu RBC. Background: In flow cytometry, cells or beads pass a laser one at a time.
Procedure: as §1
In the next assay the target is T4, dog red blood cells (dog).
T4 construct: also called dog RBC
The assay can be described thus: FACS, dog RBC.

For assay [7], the target named is T5, Cynomolgus monkey glycophorin A on Cynomolgus monkey red blood cells (Cynomolgus monkey).
T5 construct: whole, on cells; also called Cyno RBC; Cyno GPA
Put plainly: FACS, Cyno RBC.
Procedure: as §1

Assay [8] concerns the target T1, purified human glycophorin A protein …. The assay can be described thus: ELISA, purified IgG.
Procedure: The “Sigma GPA” is a crude preparation of human GPA extracted from human red blood cells and is therefore representative of the highly glycosylated form of the native protein.
EC 50 values were determined from a dilution curve of the antibody. Sigma GPA is partially purified GPA extracted from human red blood cells and purchased from Sigma Chemical Company (cat # G5017), asialo hGPA is human GPA that was desialylated and ECD is the recombinantly expressed ectodomain which is the extracellular portion of GPA.
Assay [9] deals with T3, recombinant human GPA ectodomain. Put plainly: SPR, IgG; SPR, IgG form, recombinant human GPA ectodomain. In general terms: SPR reads the build-up and loss of mass on a sensor chip optically.

Procedure for dog red blood cells: as §1

B1: TPP-4935 (Fab, V domains shown)
VH: EVQLVQSGAEVKKPGASVKVSCKASGYTFTTYTIHWVRQAPGQGLEWIGYINPSSDYTRYNPKFKDRVTLTTDKSTSTAYMELRSLRSDDTAVYYCQTGTRDYWGQGTTVTVSS
VL: DIQLTQSPSFLSASVGDRVTITCSAASSVSYIYWFQQKPGKAPKLLIYSTSTLPSGVPSRFSGSGSGTEYTLTISSLQPEDFATYYCHQRNSFPFTFGQGTKLEIKR
notes: also called Parental; hu6C12-24 parental Fab
As usually defined, the Kd is the concentration at which binding is half-saturated. For the molecule B1, the “binding by ELISA relative to parental” value in [1] was found to be 1; in assay [2], 0.99. The affinity in assay [3], expressed as Kd, was 130 nM.

B2: TPP-5340 (Fab, V domains shown)
VH: EVQLVQSGAEVKKPGASVKVSCKASGYTFTTYTIHWVRQAPGQGLEWIGYINPSSDYTRYNPKFKDRVTLTTDKSTSTAYMELRSLRSDDTAVYYCQTGTRDYWGQGTTVTVSS
VL: DIQLTQSPSFLSASVGDRVTITCRAASSVSYIYWFQQKPGKAPKLLIYSTSTLPSGVPSRFSGSGSGTEYTLTISSLQPEDFATYYCHQRNSFPFTFGQGTKLEIKR
notes: also called VL: (S24R)
B2: the “binding by ELISA relative to parental” value in [1] is 1.17; in assay [2] it was 0.9; in assay [4], 1.23. The Kd in [3] came to 25 nM.

B3: TPP-5341 (Fab, V domains shown)
VH: EVQLVQSGAEVKKPGASVKVSCKASGYTFTTYTIHWVRQAPGQGLEWIGYINPSSDYTRYNPKFKDRVTLTTDKSTSTAYMELRSLRSDDTAVYYCQTGTRDYWGQGTTVTVSS
VL: DIQLTQSPSFLSASVGDRVTITCSASSSVSYIYWFQQKPGKAPKLLIYSTSTLPSGVPSRFSGSGSGTEYTLTISSLQPEDFATYYCHQRNSFPFTFGQGTKLEIKR
notes: also called VL: (A26S)
Turning to B3, the “binding by ELISA relative to parental” value was 1.03 in assay [1], 0.82 in assay [2] and 1.19 in assay [4]. The Kd in [3] stood at 34 nM.

B4: 7G4E9/A8 (antibody, V domains shown)
VH: QVQLKESGPGLVAPSQSLSITCTVSGFSLTRFGISWVRQPPGKGLEWMGVIWGDGSTDYHSALISRLSITKDNSKSQVFFRLNSLQSDDSATYYCARSFGMDYWGQGTSVTVSS
VL: NIMMTQSPSSLAVSAGEKVTMSCKSSQSILNSSNQKNYLAWYQQKPGQSPKLLIYWASTRESGVPDRFTGSGSGTDFTLTISSVQAEDLAVYYCHQYFSSRTFGGGTKLEIK
notes: as m8
Usually EC50 stands for the concentration needed to bring the measured effect to its halfway point. Broadly, the koff is the first-order rate constant of dissociation. Broadly, the kon is the rate constant with which the complex forms. The t½ is the time in which the quantity being followed falls by half. Turning to B4, the EC50 in assay [5] was found to be 0.071 nM. Further, in assay [6], the FACS signal was 2830 relative flourescence units. Further, in the assay with dog red blood cells, the FACS signal is 0.98 relative flourescence units. Further, in assay [7], the FACS signal is 8 relative flourescence units. Further, the EC50 in assay [8] amounted to 0.33 nM. Also, in assay [9], the dissociation constant (Kd) worked out at 5.92 nM, the koff is 0.00046 s⁻¹, the on-rate constant (kon) came to 77700 M⁻¹ s⁻¹ and the t½ came to 25.1 min.
